These results are taken from patent US20240218057A1 (ROCKEFELLER UNIVERSITY, published 2024).

The experiment has as its target T1, SARS-COV-2 RBD (SARS-COV-2, UniProt P0DTC2 319-539).
T1 construct: also called WT RBD
The experiment can be described thus: ELISA, RBD coated. In general terms: An ELISA detects its analyte on a solid surface through an enzyme-linked reagent.

B1: C1026 (antibody, V domains shown)
VH: QVQLVESGGGVVQPGKSLRLSCAASGFIFSSYSMHWVRQAPGKGLEWVAVVSNDGSGKFYADSVRGRFTIFRDNSKNTLYLQVSSLRAEDTAVYYCARDALTSISVLFDCWGQGTLVTVSS
VL: DIQMTQSPSSLSASLGDRVTITCRASQSISNYLNWYQQKPGKAPKLLIYGASSLQSGVPSRFSGSGSGTDFTLTISNLQPEDFATYFCQQSYSTPSVTFGGGTKVEIK
notes: IgG; V domains only
For the molecule B1, the midpoint of the response, the EC50, lay at 2.5 ng/mL.

B2: C1027 (antibody, V domains shown)
VH: EVQLVESGGGLVQPGGSLRLSCAASGFIVTTNYMSWVRQAPGKGLEWVSLIYPGGSTFYADSVEGRFTISRDNSKNTLYLQVNSLRVEDTAVYYCARDTFGRGDDHWGQGTLVTVSS
VL: DIQMTQSPSSLSASVGDRVTITCQASQDINIYLNWYQQRPGKAPKLLIYDASNLQTGVPSRFSGSGSGTDFTITISSLQPEDIATYYCQQYDNLPRSFGQGTKLEI
notes: IgG; V domains only
Regarding B2, the EC50 (usually the concentration at which the effect is half-maximal) came to 2.42 ng/mL.

B3: C1028 (antibody, V domains shown)
VH: QVQLVESGGGVVQPGRSLRLSCADSGFTFSSSGMHWVRQAPGKGLEWVGVISYDGGNKYYADSVKGRFTISRDNSKNTLYLQMNSLRAEDTAVYYCAKDTPGGDDIMTGWGLYGMDVWGQGTTVTVSS
VL: DIQMTQSPSSLSASVEDRVTITCRASQSISSYLNWYQQKPGKAPKLLIYAAISLQSGVPSRFSGSGSGTEFTLTISSLQPEDFATYYCQQSYTTPWAFGQGTKVEIK
notes: IgG; V domains only
B3 had a 50% effective concentration (EC50) of 3.58 ng/mL.

B4: C1016 (antibody, V domains shown)
VH: QVQLQESGPGLVKPSGTLSLTCAVSGGPISSNHWWSWVRQPPGKGLEWIGEVYRNGNTNYHPSLKSRVTMSIDNSKNQFSLSLTSVTAADTAVYYCARGGDLAMGPEYLDFWGQGTLVTVSS
VL: QSALTQPASVSGSPGQSITISCTGTSSDVGANNYVSWYQQHPGKAPKLMIYDVINRPSGVSDRFSGSKSGNTASLTISGLQAEDEADYYCSSFSTSSTLLFGGGTKLTVL
notes: IgG; V domains only
In turn, B4 came in with an EC50 of 2.16 ng/mL.

B5: C1023 (antibody, V domains shown)
VH: QVQLVQSGAEMKKPGASVKISCKASGDTFTTNYFHWVRQAPGQGLEWMGIINPSAGSTTYAQRFQGRVTMTGDSSTNTVYLELRSLRSEDTAMYFCAKGSYIPAMRSSFDPWGQGTLVTVSS
VL: EIVLTQSPGTLSLSPGERATLSCRASQSVSHRYLAWYQQKPGQAPRLLIDGASNRATGIPDRFSGSGSGTDFTLTISRLEPEDFGVYYCQQYGSSPPFTFGQGTKLEIK
notes: IgG; V domains only
For B5, the EC50 was determined as 1.13 ng/mL.

B6: C1022 (antibody, V domains shown)
VH: QVQLVQSGAEVKTPGASVKVSCQASGDTFTSQYLHWVRQAPGQGLEWMGIINPTAGSTTYAQKFQGRVTMTRDTSTSTVYMELRSLRSEDMAVYYCARGGFIPMVRGFIDHWGQGTLVTVSS
VL: QSALTQPASVSGSPGQSITISCTGTSSDVGGYNYVSWYQQHPGKAPKLMIYDVSNRPSGVSTRFSGSKSGNTASLTISGLQAEDEADYYCSSPTSSNTHVFGTGTKVTVL
notes: IgG; V domains only
Molecule B6 returned an EC50 of 1.66 ng/mL.

B7: C1008 (antibody, V domains shown)
VH: EVQLVESGGGLIQPGGSLRLSCAASGFTVSSNYMSWVRQAPGKGLEWVSVIYSGGSTYYADSVKGRFTISRDNSKNTLYLQMNSLRAEDTAVYYCARVVGYDFWSGYDGGYFDYWGQGTLVTVSS
VL: QSALTQPASVSGSPGQSITISCTGTSSDVGSYNLVSWYQQHPGKAPKLMIYEVSKRPSGVSNRFSGSKSGNTASLTISGLQAEDEADYYCCSYAGSSTWVFGGGTKLTVL
notes: IgG; V domains only
For B7, a half-maximal response (EC50) required 17.2 ng/mL.

B8: C1009 (antibody, V domains shown)
VH: EVQLVESGGGLLQPGGSLRLSCAASGFSVSSNYMTWVRQAPGKGLEWVAAIYSGDSTYYVDSVKGRFIISRDNSKNTVYLHLSSLRAEDTAVYYCARLVGYDFRSGSDGGYFDYWGHGTLVTVSS
VL: QSALTQPASVSGSPGQSITISCTGTSSDIGNYNLVSWYQQHPGKAPKLMIYDVSKRPSGVSNRFSGSKSGNTASLTISGLQAEDETDYYCCSYAGSSTWVFGGGTKLTVL
notes: IgG; V domains only
In the case of B8, the EC50 came out at 1.34 ng/mL.

B9: C1029 (antibody, V domains shown)
VH: QVQLVESGGGVVQPGRSLRLSCAASGFTFSSFGMHWVRQAPGKGLEWVAVISYDGSYKDYGDSVKGRFTISRDNSKNTLYLQMNSLRAEDTAVYYCARDSNVDTVMVTWFDYWGRGTLVTVSS
VL: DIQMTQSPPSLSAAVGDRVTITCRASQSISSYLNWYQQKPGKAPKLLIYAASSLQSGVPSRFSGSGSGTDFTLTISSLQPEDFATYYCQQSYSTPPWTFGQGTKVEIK
notes: IgG; V domains only
For B9, the EC50 is 2.86 ng/mL.

B10: C1014 (antibody, V domains shown)
VH: QVQLQESGPGLVRPSQTLSLTCTVSGGSIGSGAYWSWIRQHPAKGLEWIGYVYYSGSTFYNPSLETRVSISVDISKDQFSLELTSVTVADTAVYYCAREKIEVVSIEMRPHYYGIDVWGQGTTVTVSS
VL: EIVMTQSPATLSVSPGERATLSCRASQSISSNLAWYQQKPGQPPRLLIYGASTRATGIPARFSGSGSGTEFTLTISSLQSEDIAVYYCQHYNNWPPWTFGQGTKVDIK
notes: IgG; V domains only
With B10, the midpoint of the response, the EC50, lay at 2.95 ng/mL.

B11: C1020 (antibody, V domains shown)
VH: QVQLVQSGAEVKKPGASVKISCKASGYSFSNYYIHWVRQAPGQGLEWMGIINPSGNSISYAQKFQGRVTMTGDTSTSTVYMELSSLRSEDTAVYYCARSVFPVPAAGGCDYWGQGTLVTVSS
VL: DIQMTQSPSSLSASVGDRVTITCRASQSITTSLNWYQQKPGKAPKLLIYSASTLESGVPSRFSGSGSGTDFTLTISSLQPEDFATYYCQQTYRAPPYTFGQGTKLEIK
notes: IgG; V domains only
B11 came in with an EC50 of 2.06 ng/mL.

B12: C1019 (antibody, V domains shown)
VH: QVQLVESGGGVVQPGTPLRLSCAASGFTFSSYAMHWVRQAPGKGLEWVAMISYDGGNKYYADSVKGRFTISRDNSKNTLFLQMNSLRGEDTAVYYCARSFSIRIGHKDNWGQGTLVTVSS
VL: NFMLTQPHSVSESPGKTVTISCTGSSGSIANNYVQWYQQRPGSAPTPVIYEDDQRPSGVPDRFSGSIDSSSNSASLSISGLKTEDEADYYCQSYDSTNFWVFGGGTKLTVL
notes: IgG; V domains only
In turn, B12 showed an EC50 of 2.8 ng/mL.

B13: C1024 (antibody, V domains shown)
VH: QVQLVESGGGVVQPGRSLRLSCAASGFTFSDYAMHWVRQAPGKGLEWVAMISYDGNSQYYADSVKGRFTISRDNSKNTLYLQMNILRPEDTAVYYCARTFSIRIGHHDYWGQGTLVTVSS
VL: NFMLTQPHSVSESPGKTVTISCTGSSGSIASNYVHWYQQRPGSAPTTVIFEDNQRPSGVPDRFSGSIDSSSNSASLTISGLKTEDEADYYCQSYDSSSFWVFGGGTKLTVL
notes: IgG; V domains only
The molecule B13 displayed an EC50 of 2.37 ng/mL.

B14: C1018 (antibody, V domains shown)
VH: QVQLVESGGGVVQPGRSLRLLCAASGFTFNTHGMHWVRQAPGKGLEWVAVIWFDGSNKYYADSVKGRFTISRDNSTNTLYLQMNSLRAEDTAVYYCARVYGGLPYYYAIDVWGQGTTVTVSS
VL: QSVLTQPPSVSGAPGQRVTISCAGSSSNIGAGYGVHWSQQLPGRPPKLLIYGDSNRPSGVPDRFSGSNSGTSASLAITGLQAEDEAVYYCQSYDRSLRAWVFGGGTKLSVL
notes: IgG; V domains only
B14 had an EC50 of 3.09 ng/mL.

B15: C1021 (antibody, V domains shown)
VH: QVQLVQSGAELKKPGASVKVSCKASGYTFSTYYIHWVRQAPGQGLEWMGIINPEAGSTSYAQKFQGRVTMTTDTSTSTVYMELISLRSQDTAIYYCARDAVGVPAINSLEYWGQGTLVTVSS
VL: EIVLTQSPATLSLSPGERATLSCRASQSISSYLAWYQQKPGQAPRLLIYDASNRATDISARFSGSGSGTDFTLTISSLEPEDFAVYYCQHRSNWPPSFTFGGGTKVEIK
notes: IgG; V domains only
As to B15, the EC50 came out at 2.53 ng/mL.

B16: C1012 (antibody, V domains shown)
VH: QVQLVQSGAEVKKPGSSVKVSCKASGGTVNNYAINWVRQAPGQGLEWMGGIVPIFGTPNYAQKFQGRVTITADESTSTAYMELSSLRSEDTAVYYCAKVSLTLPIAAAPRFWFDSWGQGTLVTVSS
VL: EIVMTQSPATLSVSPGERATLSCRASQSVSSHLAWYQQKPGQAPRLLIYGASTRATGIPARFSGSGSGTEFTLTISSLQSEDFAVYYCQQYHNWPPALTFGGGTKVEIK
notes: IgG; V domains only
For the molecule B16, the EC50 was 3.29 ng/mL.

B17: C1013 (antibody, V domains shown)
VH: QVQLVQSGVEVKKPGSSVKVSCKASGGTFTDYAFSWVRQAPGQGLEWMGGIVPIFATPDYAEKFRGRVTITADESTSTAYMELSTLKSEDTAVYYCARASLTLPIRAAPRFWFDAWGQGTLVTVSS
VL: EIVMTQSPATLSVSPGERATLSCRASQGVSTHLAWYQQKPGQAPRLLIYGASTRATGIPARFSGSGSGTEFTLTISSLQSEDFAVYYCQQYHKWPPALTFGGGTKVEIK
notes: IgG; V domains only
Molecule B17 showed an EC50 of 8.92 ng/mL.

B18: C1031 (antibody, V domains shown)
VH: QLQLQESGPGLVKPSETLSLTCTVSGGSINTSTYYWGWIRQPPGKGLEWIGNIYYSGITYYNPSLKSRVTISVDTSKNQFSLKLRSVTAADTAVYYCARQHRFGSGSSELLWGQGTLVTVSS
VL: QSALTQPPSASGSPGQSVTISCTGTSSDVGSYNYVSWYQQHPGKAPKLMIYEVTKRPSGVPDRFSGSKSGNTASLTVSGLQADDEADYYCSSYAGSSNLVFGGGTKLTV
notes: IgG; V domains only
The molecule B18 registered an EC50 of 8.71 ng/mL.

B19: C1010 (antibody, V domains shown)
VH: QVQLVESGGGVVQPGRSLRLSCAASGFTFSSYAMHWVRQAPGKGLEWVAVISYDGSNKYYADSVKGRFTISRDNSKNTLYLQMNSLRAEDTAVYYCAKKGQPYCGGDCYFYYFDYWGQGTLVTVSS
VL: DIQMTQSPSSLSASLGDRVTITCQASQDISNYLNWYQQKPGKAPKLLIYDASNLETGVPSRFSGSGSGTDFTFTISSLQPEDIATYYCQQYDNLPPITFGQGTRLEIK
notes: IgG; V domains only
The molecule B19 had an EC50 of 2.45 ng/mL.

B20: C1011 (antibody, V domains shown)
VH: QVQLVESGGGVVQPGRSLRLSCAVSGFTFSHYAMHWVRQAPGKGLEWVAVISYDGADKYYADSVRGRFTIARDNSKNTLFLQMSSLRPEDTAVYYCAKKGQPYCGGDCHFYYLDYWGQGTLVTVSS
VL: DIQMTQSPSSLSASVGDRVTITCQASQDISNHLNWYQQKPGKAPKLLIYDASNLETGVPSRFSGSGSGTDFTFTISSLQAEDIATYYCQQYDNLPPITFGQGTRLEIK
notes: IgG; V domains only
For B20, a half-maximal response (EC50) required 1.49 ng/mL.

B21: C1025 (antibody, V domains shown)
VH: EVQLVESGGGLVQPGRSLRLSCAASGFTFDDYAMHWVRQVPGKGLEWVSGVSWNGDSVGYADSMEGRFTISRDNAKNSLYLQMNSLRTEDTALYYCAKGVDYSSSSNFDFWGQGTLVTVSS
VL: DIQMTQSPSSVSASVGDRVTITCRASQGISSWLAWYQQKPGKAPKLLISLASSLQSGVPSRFSGSGSETDFTLIISSLQPEDFATYYCQQSSSFPLTFGGGTKVEIK
notes: IgG; V domains only
Regarding B21, the EC50 stood at 2.51 ng/mL.
